The results in this text go back to publication PMC10783653 (Cell reports. Physical science, 2023).

One assay addresses EGFR L858R (Homo sapiens, UniProt P00533, L858R). It counts as biochemical. The settings on record: enzyme optimization; 2.5 nM EGFR L858R, 1 μM peptide, 100 μM ATP, 60 min.
A further assay deals with RET M918T (Homo sapiens, UniProt P07949, M918T). Nature of the assay: LIMS-Kinase assay, RET M918T.
Sequence of RET M918T (P07949 29-1114 M918T): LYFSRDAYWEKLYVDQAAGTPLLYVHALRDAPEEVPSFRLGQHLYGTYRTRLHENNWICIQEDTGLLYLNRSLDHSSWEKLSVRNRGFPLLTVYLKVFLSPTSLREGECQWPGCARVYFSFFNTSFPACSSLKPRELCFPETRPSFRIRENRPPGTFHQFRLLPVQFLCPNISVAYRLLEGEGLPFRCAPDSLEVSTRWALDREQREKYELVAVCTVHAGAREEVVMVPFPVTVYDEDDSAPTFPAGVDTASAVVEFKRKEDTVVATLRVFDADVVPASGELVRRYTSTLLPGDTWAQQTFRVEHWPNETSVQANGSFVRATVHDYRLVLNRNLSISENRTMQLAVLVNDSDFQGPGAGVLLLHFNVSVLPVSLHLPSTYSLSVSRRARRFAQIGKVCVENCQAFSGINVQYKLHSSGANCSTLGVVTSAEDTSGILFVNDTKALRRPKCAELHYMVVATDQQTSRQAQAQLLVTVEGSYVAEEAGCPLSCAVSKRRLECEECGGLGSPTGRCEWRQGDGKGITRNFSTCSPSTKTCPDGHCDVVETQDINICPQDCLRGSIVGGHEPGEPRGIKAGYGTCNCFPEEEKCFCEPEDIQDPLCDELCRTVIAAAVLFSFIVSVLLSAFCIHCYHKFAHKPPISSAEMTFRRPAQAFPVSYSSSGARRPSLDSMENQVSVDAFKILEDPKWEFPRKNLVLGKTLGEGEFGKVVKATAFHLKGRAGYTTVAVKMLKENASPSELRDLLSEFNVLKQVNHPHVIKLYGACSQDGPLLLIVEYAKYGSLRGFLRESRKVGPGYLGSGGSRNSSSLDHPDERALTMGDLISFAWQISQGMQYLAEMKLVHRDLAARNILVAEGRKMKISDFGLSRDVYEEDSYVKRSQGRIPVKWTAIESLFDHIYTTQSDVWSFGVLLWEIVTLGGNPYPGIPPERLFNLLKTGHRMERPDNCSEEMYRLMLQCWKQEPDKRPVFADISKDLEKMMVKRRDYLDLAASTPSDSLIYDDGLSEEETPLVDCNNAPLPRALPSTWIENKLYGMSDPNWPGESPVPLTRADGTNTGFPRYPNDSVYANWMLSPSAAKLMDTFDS

Turning to “MS-Csktide1: kinase substrate peptide, sequence KEEIYFFF”, in the assay with EGFR L858R, the substrate converted result is reported as “approximately 20%”.
Regarding `COc1ccc(CN2C3CC2CN(c2ccc(-c4cc(OCC(C)(C)O)cn5ncc(C#N)c45)cn2)C3)cn1` [selpercatinib, reference compound], the “potency in LIMS-Kinase assay compared to previously reported value” at RET M918T (0.7 nM vs. […]) is “more than six times higher”.
Regarding “MS-Csktide2: kinase substrate peptide, sequence KEEIYFFFG”, the substrate converted entry with RET M918T (enzyme optimization, 2.5 nM RET M918T, 1 μM peptide, 100 μM ATP, 60 min) is recorded as “Approximately 39%”.
